Results reported in US20230272055A1, “ANTI-MUTANT CALRETICULIN (CALR) ANTIBODIES AND USES THEREOF” (Incyte Corporation, priority 2021, published 2023).
Substitutions are numbered along the chain they refer to. Read-outs that look alike come from different tables or passages of the source. Values belong to the binder of their own block, whether it stands above or below them.

Experiments:
[1] = molecular target: Human Type 1 mutCALR (human); assay: cell-based or functional assay
[2] = molecular target: human Type 1 mutCALR (52 bp deletion) (human)
Chain of human Type 1 mutCALR (52 bp deletion) (human) (chain, as listed by the source limits assumed, stated change not applied): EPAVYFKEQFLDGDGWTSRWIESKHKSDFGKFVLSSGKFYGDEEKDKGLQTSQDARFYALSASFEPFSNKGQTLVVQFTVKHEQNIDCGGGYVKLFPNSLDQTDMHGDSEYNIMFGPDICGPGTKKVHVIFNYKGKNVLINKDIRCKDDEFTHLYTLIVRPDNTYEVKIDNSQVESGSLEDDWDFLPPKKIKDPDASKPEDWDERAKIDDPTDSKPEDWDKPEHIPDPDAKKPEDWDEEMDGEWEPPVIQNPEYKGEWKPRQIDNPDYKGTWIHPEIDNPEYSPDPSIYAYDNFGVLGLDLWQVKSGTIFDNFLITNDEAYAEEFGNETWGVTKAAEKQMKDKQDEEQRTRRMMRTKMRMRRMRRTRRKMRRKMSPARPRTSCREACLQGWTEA

[3] = molecular target: human Type 1 mutCALR (52 bp deletion) (human); remark: listed apart in the source
[4] = molecular target: human Type 1 mutCALR (52 bp deletion) (human); remark: listed apart in the source
[5] = molecular target: human Type 1 mutCALR (52 bp deletion) (human); remark: listed apart in the source
[6] = molecular target: human Type 1 mutCALR on Ba/F3 cells expressing MPL and Type 1 mutCALR (human); assay: cell-based or functional assay
Chain of human Type 1 mutCALR on Ba/F3 cells expressing MPL and Type 1 mutCALR (human) (chain, as listed by the source limits assumed): as the sequence (chain, as listed by the source limits assumed, stated change not applied) above

[7] = molecular target: human Type 1 mutCALR (52 bp deletion) (human); remark: listed apart in the source

Chain of Human Type 1 mutCALR (human) (chain, as listed by the source limits assumed): as the sequence (chain, as listed by the source limits assumed, stated change not applied) above

- IC50 of inhibition of cell proliferation (Ba/F3 cells with MPL and mutCALR Type 1) [1]: 0.9 ng/mL
- IC50 of inhibition of MPL-LgBiT/MPL-smBiT dimerization (NanoBiT luminescence, percent of isotype) in transfected HAP1 JAK2-knockout cells [2]: 3.27 ng/mL
B1: anti-mutCALR antibody clone 68 (antibody, human IgG1, lambda, N297A, V domains shown)
VH: EVQLVQSGAEVKKPGASVKVSCKVSGYTLTELSMQWVRQAPGKGLEWMGGFDPDEGETMYAEKFQGRLTVTEDTSTDTVYMELRSLTSEDTALYFCATSPGYDFFDYWGQGTLVTVSS
VL: SYVLTQPPSVSVAPGKTARITCTGTSSDVGGYNYVSWYQQKPGQAPVLVVYEVSNRPSGIPERFSGSNSGNTATLTISRVEAGDEADYYCQVWDSSNDLLIFGGGTKLTVLG

- IC50 of inhibition of cell proliferation (Ba/F3 cells with MPL and mutCALR Type 1) [1]: 4.6 ng/mL
- IC50 of inhibition of MPL-LgBiT/MPL-smBiT dimerization (NanoBiT luminescence, percent of isotype) in transfected HAP1 JAK2-knockout cells [3]: 2.48 ng/mL
B2: anti-mutCALR antibody clone 188 (antibody, human IgG1, lambda, N297A, V domains shown)
VH: B1 VH with R84S, T87R, L93V
VL: SYVLTQPPSVSVAPGQTARITCGGSDIGDEIVHWYQQKPGQAPVLVVYDDSDRPSGIPERFSGSNSGNTATLTISRVEAGDEADYYCQVWDSSSDHLIFGGGTKLTVLG

- IC50 of inhibition of MPL-LgBiT/MPL-smBiT dimerization (NanoBiT luminescence, percent of isotype) in transfected HAP1 JAK2-knockout cells [4]: 8.89 ng/mL
- IC50 of inhibition of cell proliferation (Ba/F3 cells with MPL and mutCALR Type 1) [1]: 1 ng/mL
- Log IC50 of inhibition of cell proliferation, antibody + ruxolitinib (Ba/F3-TPOR/mutCALR type 1 cells) (Log IC50 (µg/mL)) [1]: -1.46
- Log IC50 of inhibition of cell proliferation, antibody alone (Ba/F3-TPOR/mutCALR type 1 cells) (Log IC50 (µg/mL)) [1]: -0.438
B3: anti-mutCALR antibody clone 74 (antibody, human IgG1, lambda, N297A, V domains shown)
VH: B1 VH with E55D, G56A, R84S, T87R, L93V
VL: B1 VL

- IC50, inhibition of pSTAT5 [6]: 0.06 µg/mL
B6: anti-mutCALR antibody clone 14 (antibody, human IgG1, lambda, V domains shown)
VH: B1 VH with E55D, T69A
VL: SYVLTQPPSVSVAPGKTARITCGGYNIGSKFVHWYRQRPGQAPVLVVYDDRDRPSGIPERFSGSNSGNTATLTISRVEAGDEADYYCQVWDSSNDLLIFGGGTKLTVLG

- IC50 of inhibition of cell proliferation (Ba/F3 cells with MPL and mutCALR Type 1) [1]: 1.9 ng/mL
- IC50 of inhibition of MPL-LgBiT/MPL-smBiT dimerization (NanoBiT luminescence, percent of isotype) in transfected HAP1 JAK2-knockout cells [7]: 3.77 ng/mL
B7: anti-mutCALR antibody clone 184 (antibody, human IgG1, lambda, N297A, V domains shown)
VH: B1 VH with E55D, G56A
VL: B2 VL

- IC50, inhibition of pSTAT5 [6]: 12.7 µg/mL
B9: anti-mutCALR antibody clone 54 (antibody, human IgG1, kappa, V domains shown)
VH: QVTLKESGPGILKPSQTLSLTCSFSGFSLSTSGMGVGWIRQPSGKGLEWLAHIWWDDDKYYNPYLKNQVTISKDTSRNQVFLKITSVDTADTATYYCARSAYGSTYGYWGQGTTLTVSS
VL: DIVLTQSPASLAVSLGQRATISCKASQSVDYDGDSFMNWYQQKPGQPPKLLIYTASILESGIPARFSGSGSGTDFTLNIHPVEEEDAATYYCQQSNEDPWTFGGGTKLEIKR

Second part, the binder before the results:

B4: anti-mutCALR antibody clone 65 (antibody, human IgG1, lambda, N297A, V domains shown)
VH: B1 VH with E55D
VL: B1 VL
- IC50 of inhibition of cell proliferation (Ba/F3 cells with MPL and mutCALR Type 1) [1]: 0.3 ng/mL
- IC50 of inhibition of MPL-LgBiT/MPL-smBiT dimerization (NanoBiT luminescence, percent of isotype) in transfected HAP1 JAK2-knockout cells [5]: 3.27 ng/mL

B5: anti-mutCALR antibody clone 128 (antibody, human IgG1, lambda, N297A, V domains shown)
VH: B1 VH with E55D, G56A
VL: B6 VL with V3E, Y25D, F31S, R36Q, R38K, R51S, S75N
- IC50 of inhibition of cell proliferation (Ba/F3 cells with MPL and mutCALR Type 1) [1]: 9.8 ng/mL

B8: AB3: anti-mutCALR antibody including the BJ095 VH region and the BJ097 VL region from WO2019178362 fused to human constant regions (antibody, human IgG1, kappa, V domains shown)
VH: QVQLVQSGAEVKKPGASVKVSCKASGYSFTGYYIHWVRQAPGQGLEWIGYISAYNGASSYNQKFKGRATFTVDTSISTAYMELSRLRSDDTAVYYCASSMDYWGQGTLVTVSS
VL: DVVMTQSPLSLPVTLGQPASISCKSSQSLLDSDGKTYLNWLQQRPGQSPKRLIYLVSKLDSGVPDRFSGSGSGTDFTLKISRVEAEDVGVYHCWQGTHFPYTFGQGTKLIEKR
- IC50 of inhibition of cell proliferation (BaF3 cells expressing MPL/mutCALR Type 1) [1]: > 60 µg/mL

B10: AB2: anti-mutCALR antibody including VH and VL regions of antibody B3 from WO2020175689 fused to human constant regions (antibody, human IgG1, kappa, V domains shown)
VH: QVQLQQSGAELVKPGSSVKISCKASGYTFTRNFIHWIKQQPGNGLEWIGWIFPGDGDTEYNQKFNGKATLTADKSSSTAYMQLSSLTSEDSAVYFCARGNYNYEYFDYWGQGVMVTVSS
VL: DIQMTQSPASLSASLGETVSIECLASEDIYSYLAWYQQKPGKSPQLLIFAANRLQDGVPSRFSGSGSGTQFSLKISGMQPEDEGDYFCLQGSKFPYTFGPGTKLELNR
- IC50 of inhibition of cell proliferation (BaF3 cells expressing MPL/mutCALR Type 1) [1]: > 60 µg/mL
